According to patent US20150023958A1 (SAMSUNG ELECTRONICS, published 2015):

T1: human Ang2 (human, UniProt O15123 19-496)
T1 construct: Bought protein (R&D Systems); also called A2; angiopoietin 2
T1 sequence (looked up): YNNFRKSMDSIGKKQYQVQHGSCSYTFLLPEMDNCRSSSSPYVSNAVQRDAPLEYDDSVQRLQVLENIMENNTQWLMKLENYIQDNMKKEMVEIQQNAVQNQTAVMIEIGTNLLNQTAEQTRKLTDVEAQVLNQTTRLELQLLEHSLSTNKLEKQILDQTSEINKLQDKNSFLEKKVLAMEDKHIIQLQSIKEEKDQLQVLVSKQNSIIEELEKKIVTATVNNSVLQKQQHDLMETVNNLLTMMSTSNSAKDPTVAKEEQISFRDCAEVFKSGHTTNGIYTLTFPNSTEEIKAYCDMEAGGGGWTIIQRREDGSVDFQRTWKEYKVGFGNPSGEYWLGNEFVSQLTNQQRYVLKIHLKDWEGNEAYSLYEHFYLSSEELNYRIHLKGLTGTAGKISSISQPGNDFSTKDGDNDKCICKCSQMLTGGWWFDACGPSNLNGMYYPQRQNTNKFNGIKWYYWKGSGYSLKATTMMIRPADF

T2: human VEGF-C (human, UniProt P49767 103-227)
T2 construct: Bought protein (R&D Systems); also called VC; Vascular endothelial growth factor C
T2 sequence (looked up): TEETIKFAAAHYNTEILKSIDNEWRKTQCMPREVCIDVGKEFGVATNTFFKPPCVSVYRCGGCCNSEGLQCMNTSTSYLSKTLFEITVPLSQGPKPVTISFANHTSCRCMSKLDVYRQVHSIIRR

T3: human VEGF-D (human, UniProt O43915 93-201, limits assumed)
T3 construct: Bought protein (R&D Systems); also called Vascular endothelial growth factor D
T3 sequence (looked up): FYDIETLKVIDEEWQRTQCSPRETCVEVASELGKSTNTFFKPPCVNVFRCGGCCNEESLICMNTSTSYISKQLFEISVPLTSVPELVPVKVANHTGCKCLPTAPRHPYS


What was measured:
human Ang2 = biological target: T1, human Ang2; test: ELISA, Ang2 coated on plate, anti-human Fc-HRP detection
Protocol: (§1) To measure binding capacities of fusion polypeptides to each target, ELISA (Enzyme-linked immunosorbent assay) was conducted. On a 96-well MaxiSorp™ flat-bottom plate (Nunc), 50 ul of human VEGF-C, VEGF-D, or Ang2 (R&D Systems) were coated in the concentration of […]. And then, the plate was washed 5 times with PBS containing 0.05% Tween-20, and then, blocked with PBS containing 1% BSA at room temperature for 2 hours. 50 ul of each fusion polypeptide was put in each well according to concentration, and then, the plate was incubated at room temperature for 2 hours. And then, it was washed 5 times with PBS containing 0.05% Tween-20, and then, HRP-conjugated anti-human Fc antibody (Sigma) was diluted to 1:5,000 with PBS containing 1% BSA and reacted at room temperature for 1 hour, and washed 5 times with PBS containing 0.1% Tween-20. Finally, to each well of the plate, 50 μl of TMB substrate (SIGMA) was added to cause color reaction, and then, the reaction was stopped with 50 μl of a 5N H₂SO₄ solution, and OD450 value was measured on a plate reader (Molecular Devices). Thereby, binding capacities (KD) of the manufactured fusion polypeptides to human VEGF-C, VEGF-D or Ang2 protein were measured.

human VEGF-C = biological target: T2, human VEGF-C; test: ELISA, VEGF-C coated on plate, anti-human Fc-HRP detection
Protocol: as §1

human VEGF-D = biological target: T3, human VEGF-D; test: ELISA, VEGF-D coated on plate, anti-human Fc-HRP detection
Protocol: as §1

Kd (human Ang2) [nM] | Kd (human VEGF-C) [nM] | Kd (human VEGF-D) [nM] | binding result (human Ang2) | Binder
45 | 130 | 170 |  | AV-body 1 (Fc fusion, also called fusion polypeptide AV-body 1; Tie2-ECD/R2-2/R2-3-Fc; not shown: Fc fragment of human IgG1, fused to the C-terminus through the pFUSE-hIgG1-Fc1 vector (InvivoGen)) AMDLILINSLPLVSDAETSLTCIASGWRPHEPITIGRDFEALMNQHQDPLEVTQDVTREWAKKVVWKREKASKINGAYFCEGRVRGEAIRIRTMKMRQQASFLPATLTMTVDKGDNVNISFKKVLIKEEDAVIYKNGSFIHSVPRHEVPDILEVHLPHAQPQDAGVYSARYIGGNLFTSAFTRLIVRRCEAQKWGPECNHLCTACMNNGVCHEDTGECICPPGFMGRTCEKACELHTFGRTCKERCSGQEGCKSYVFCLPDPYGCSCATGWKGLQCNEACHPGFYGPDCKLRCSCNNGEMCDRFQGCLCSPGWQGLQCEREGIEFSPFIASVSDQHGVVYITENKNKTVVIPCLGSISNLNVSLCARYPEKRFVPDGNRISWDSKKGFTIPSYMISYAGMVFCEAKINDESYQSIMYIVVVVGYRIYDVVLSPSHGIELSVGEKLVLNCTARTELNVGIDFNWEYPSSKHQHKKLVNRDLKTQSGSEMKKFLSTLTIDGVTRSDQGLYTCAASSGLMTKKNSTFVRVHE
20 | 34 | 42 |  | AV-body 2 (Fc fusion, also called fusion polypeptide AV-body 2; Tie2-ECD/R2-2/R3-2-Fc; not shown: Fc fragment of human IgG1, fused to the C-terminus through the pFUSE-hIgG1-Fc1 vector (InvivoGen)) AMDLILINSLPLVSDAETSLTCIASGWRPHEPITIGRDFEALMNQHQDPLEVTQDVTREWAKKVVWKREKASKINGAYFCEGRVRGEAIRIRTMKMRQQASFLPATLTMTVDKGDNVNISFKKVLIKEEDAVIYKNGSFIHSVPRHEVPDILEVHLPHAQPQDAGVYSARYIGGNLFTSAFTRLIVRRCEAQKWGPECNHLCTACMNNGVCHEDTGECICPPGFMGRTCEKACELHTFGRTCKERCSGQEGCKSYVFCLPDPYGCSCATGWKGLQCNEACHPGFYGPDCKLRCSCNNGEMCDRFQGCLCSPGWQGLQCEREGIEFMQSKVLLAVALWLCVETRAASDYRSPFIASVSDQHGVVYITENKNKTVVIPCLGSISNLNVSLCARYPEKRFVPDGNRISWDSKKGFTIPSYMISYAGMVFCEAKINDESYQSIMYIVVVVGEQPFINKPDTLLVNRKDAMWVPCLVSIPGLNVTLRSQSSVLWPDGQEVVWDDRRGMLVSTPLLHDALYLQCETTWGDQDFLSNPFLVHITG
 | 100 | 100 | no binding | V-body (Fc fusion, Expressed in 293-F cells and purified on MabSelect SuRe; also called fusion polypeptide V-body; R2-2/R3-2-Fc; not shown: Fc fragment of human IgG1, fused to the C-terminus through the pFUSE-hIgG1-Fc1 vector (InvivoGen)) ASDYRSPFIASVSDQHGVVYITENKNKTVVIPCLGSISNLNVSLCARYPEKRFVPDGNRISWDSKKGFTIPSYMISYAGMVFCEAKINDESYQSIMYIVVVVGEQPFINKPDTLLVNRKDAMWVPCLVSIPGLNVTLRSQSSVLWPDGQEVVWDDRRGMLVSTPLLHDALYLQCETTWGDQDFLSNPFLVHITG
